Test results: PMC3064766 (Nucleic Acids Research, 2010)

Key:
myc-tagged Mot1p = myc-tagged Mot1p (S. cerevisiae, UniProt P32333 1-1867); test: co-IP
myc-tagged Cbp80p = target: T1, myc-tagged Cbp80p (S. cerevisiae, UniProt P34160 1-861); test: pull-down
T1 sequence (looked up): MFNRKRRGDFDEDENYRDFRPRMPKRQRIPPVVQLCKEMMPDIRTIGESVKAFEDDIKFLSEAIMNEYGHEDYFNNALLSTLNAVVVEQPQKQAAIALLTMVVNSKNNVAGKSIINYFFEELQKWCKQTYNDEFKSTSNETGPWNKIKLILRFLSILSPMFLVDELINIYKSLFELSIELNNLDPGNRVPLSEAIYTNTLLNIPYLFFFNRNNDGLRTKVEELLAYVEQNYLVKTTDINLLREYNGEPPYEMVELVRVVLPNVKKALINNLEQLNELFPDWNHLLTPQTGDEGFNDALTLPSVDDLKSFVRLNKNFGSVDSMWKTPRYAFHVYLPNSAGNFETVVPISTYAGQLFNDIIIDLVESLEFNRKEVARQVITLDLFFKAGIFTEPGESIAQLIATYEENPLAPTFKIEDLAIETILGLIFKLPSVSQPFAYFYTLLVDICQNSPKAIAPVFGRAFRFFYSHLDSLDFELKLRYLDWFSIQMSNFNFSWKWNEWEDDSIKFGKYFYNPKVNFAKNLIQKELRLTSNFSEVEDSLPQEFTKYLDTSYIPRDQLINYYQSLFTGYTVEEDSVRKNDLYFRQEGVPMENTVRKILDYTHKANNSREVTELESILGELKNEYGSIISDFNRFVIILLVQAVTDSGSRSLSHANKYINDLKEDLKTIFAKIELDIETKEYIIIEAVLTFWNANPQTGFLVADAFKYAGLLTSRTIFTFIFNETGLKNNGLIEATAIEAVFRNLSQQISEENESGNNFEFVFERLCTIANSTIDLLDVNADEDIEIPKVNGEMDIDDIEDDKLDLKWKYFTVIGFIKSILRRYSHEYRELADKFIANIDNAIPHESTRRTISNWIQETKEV

myc-tagged Mot1p, sequence (P32333 whole entry): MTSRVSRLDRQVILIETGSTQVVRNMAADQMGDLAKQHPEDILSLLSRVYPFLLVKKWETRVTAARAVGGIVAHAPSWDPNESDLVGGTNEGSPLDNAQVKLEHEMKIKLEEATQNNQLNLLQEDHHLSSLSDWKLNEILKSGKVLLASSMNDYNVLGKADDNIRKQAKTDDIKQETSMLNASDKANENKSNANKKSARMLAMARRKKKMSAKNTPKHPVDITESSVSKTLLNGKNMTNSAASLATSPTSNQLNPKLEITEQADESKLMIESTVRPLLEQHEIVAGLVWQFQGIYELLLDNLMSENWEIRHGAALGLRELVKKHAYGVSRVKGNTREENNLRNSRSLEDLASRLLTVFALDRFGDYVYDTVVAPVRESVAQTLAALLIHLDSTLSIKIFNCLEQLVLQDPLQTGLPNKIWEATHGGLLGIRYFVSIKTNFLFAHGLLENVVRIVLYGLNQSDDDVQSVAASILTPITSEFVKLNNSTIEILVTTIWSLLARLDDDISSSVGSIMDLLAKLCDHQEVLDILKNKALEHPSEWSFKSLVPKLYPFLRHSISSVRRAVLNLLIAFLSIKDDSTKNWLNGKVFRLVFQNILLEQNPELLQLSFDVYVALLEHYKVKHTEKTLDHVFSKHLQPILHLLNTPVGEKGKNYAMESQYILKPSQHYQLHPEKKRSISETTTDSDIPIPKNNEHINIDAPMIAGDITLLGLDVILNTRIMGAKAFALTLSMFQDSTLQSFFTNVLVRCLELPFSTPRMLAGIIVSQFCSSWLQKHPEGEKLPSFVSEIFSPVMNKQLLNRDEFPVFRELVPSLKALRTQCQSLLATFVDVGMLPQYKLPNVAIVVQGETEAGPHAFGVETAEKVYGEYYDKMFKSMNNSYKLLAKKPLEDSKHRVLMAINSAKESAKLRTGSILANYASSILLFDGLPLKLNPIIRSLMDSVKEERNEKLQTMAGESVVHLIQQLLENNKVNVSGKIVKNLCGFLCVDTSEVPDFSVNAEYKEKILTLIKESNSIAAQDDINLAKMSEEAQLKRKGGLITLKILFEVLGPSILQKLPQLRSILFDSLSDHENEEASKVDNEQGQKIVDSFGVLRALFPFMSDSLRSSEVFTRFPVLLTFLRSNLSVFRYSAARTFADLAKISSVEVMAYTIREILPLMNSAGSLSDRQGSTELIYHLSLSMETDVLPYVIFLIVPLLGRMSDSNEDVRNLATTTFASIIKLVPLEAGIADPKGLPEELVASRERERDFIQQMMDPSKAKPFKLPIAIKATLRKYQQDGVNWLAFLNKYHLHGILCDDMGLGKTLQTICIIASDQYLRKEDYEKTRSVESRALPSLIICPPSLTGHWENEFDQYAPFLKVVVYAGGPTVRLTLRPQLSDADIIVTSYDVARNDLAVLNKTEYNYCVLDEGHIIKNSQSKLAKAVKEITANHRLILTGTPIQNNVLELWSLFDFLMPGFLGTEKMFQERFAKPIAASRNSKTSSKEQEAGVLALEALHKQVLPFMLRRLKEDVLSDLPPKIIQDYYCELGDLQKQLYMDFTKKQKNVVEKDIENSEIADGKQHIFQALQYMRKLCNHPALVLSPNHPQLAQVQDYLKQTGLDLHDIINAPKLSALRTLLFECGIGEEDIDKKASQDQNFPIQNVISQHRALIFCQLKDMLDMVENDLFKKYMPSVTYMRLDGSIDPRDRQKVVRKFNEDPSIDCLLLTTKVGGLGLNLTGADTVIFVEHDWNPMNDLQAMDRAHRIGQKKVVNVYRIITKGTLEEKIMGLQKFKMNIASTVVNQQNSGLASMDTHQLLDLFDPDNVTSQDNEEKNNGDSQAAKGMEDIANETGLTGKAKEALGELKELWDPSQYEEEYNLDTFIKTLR

binding result (myc-tagged Mot1p): binds
binding result (myc-tagged Cbp80p): binds
B1: HA-tagged Cbp20p (natural protein, S. cerevisiae, UniProt Q08920 1-208, looked up)
chain: MSLEEFDEVKYDHSTKRLDTPSRYLLRKARRNPNGLQELRESMKSSTIYVGNLSFYTSEEQIYELFSKCGTIKRIIMGLDRFKFTPCGFCFIIYSCPDEALNALKYLSDTKLDEKTITIDLDPGFEDGRQFGRGKSGGQVSDELRFDFDASRGGFAIPFAERVGVPHSRFDNSSSQSNTNNYIPPPDAMGTFRPGFDEEREDDNYVPQ
